We go through six molecules from patent US20190071499A1 (published 2019).

One assay deals with T1, g1mIFN-α1 (mouse, UniProt P01572 24-189).
T1 construct: also called murine IFN-α1 (Gaussia luciferase fusion); not shown: Gaussia luciferase fusion partner
T1 sequence (looked up): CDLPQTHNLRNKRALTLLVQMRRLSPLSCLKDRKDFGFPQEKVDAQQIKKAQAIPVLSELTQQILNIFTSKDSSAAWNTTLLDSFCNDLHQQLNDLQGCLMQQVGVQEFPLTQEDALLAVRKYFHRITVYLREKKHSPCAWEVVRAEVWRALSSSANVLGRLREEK
Kind of assay: LIPS.

Another assay concerns the target T2, g1mIFN-α9 (mouse, UniProt P09235 24-190).
T2 construct: also called murine IFN-α9 (Gaussia luciferase fusion); not shown: Gaussia luciferase fusion partner
T2 sequence (looked up): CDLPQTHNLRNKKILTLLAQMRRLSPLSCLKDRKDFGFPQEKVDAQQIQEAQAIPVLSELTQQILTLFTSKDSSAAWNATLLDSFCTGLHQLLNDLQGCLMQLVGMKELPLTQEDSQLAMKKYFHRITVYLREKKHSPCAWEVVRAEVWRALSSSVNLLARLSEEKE
Kind of assay: LIPS.

Assay [1] has as its target T3, human IFN-α1 (human, UniProt P0DY56 24-189). Description: cell-based or functional assay.
The next assay has as its target human IFN-α4 (human, UniProt P05014 24-189). Description: cell-based or functional assay.
In another assay the target is human IFN-α5 (human, UniProt P01569 24-189, limits assumed). Description: cell-based or functional assay.
The target of a further assay is human IFN-α6 (human, UniProt P05013 24-189, limits assumed). Description: cell-based or functional assay.
Another assay addresses human IFN-α7 (human, UniProt P01567 24-189). Description: cell-based or functional assay.
The target in assay [2] is T4, human IFN-α10 (human, UniProt P01566 24-189). Kind of assay: cell-based or functional assay.
For assay [3], the target named is T5, human IFN-α14 (human, UniProt P01570 24-189). Kind of assay: cell-based or functional assay.
The target of assay [4] is T6, human IFN-α16 (human, UniProt P05015 24-189). Description: cell-based or functional assay.
The target in the next assay is human IFN-α17 (human, UniProt P01571 24-189). Description: cell-based or functional assay.
Assay [5] concerns the target T7, human IFN-α21 (human, UniProt P01568 24-189). Description: cell-based or functional assay.
The next assay addresses human IFN-ω (human, UniProt P05000 24-195, limits assumed). Description: cell-based or functional assay.
For assay [6], the target named is T8, human Fc fusion mouse IFN-α2 (mouse, UniProt P01573 24-190).
T8 construct: bought (SinoBiological); also called murine IFN-α2; murine INFA2; not shown: human Fc
T8 sequence (looked up): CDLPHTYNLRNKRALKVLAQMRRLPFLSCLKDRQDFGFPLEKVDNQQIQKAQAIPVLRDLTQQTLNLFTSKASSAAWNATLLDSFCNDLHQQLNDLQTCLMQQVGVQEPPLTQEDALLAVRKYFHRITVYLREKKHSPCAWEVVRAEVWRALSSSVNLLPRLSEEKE
Description: ELISA, human Fc fusion mouse IFN-α.

Assay [7] has as its target T9, human Fc fusion mouse IFN-α4 (mouse, UniProt P07351 25-186).
T9 construct: bought (SinoBiological); also called murine IFN-α4; not shown: human Fc
T9 sequence (looked up): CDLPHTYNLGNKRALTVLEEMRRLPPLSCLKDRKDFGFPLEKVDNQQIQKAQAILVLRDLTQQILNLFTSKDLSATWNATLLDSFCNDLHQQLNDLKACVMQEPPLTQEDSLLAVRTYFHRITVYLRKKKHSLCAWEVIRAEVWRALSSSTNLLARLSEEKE
Kind of assay: ELISA, human Fc fusion mouse IFN-α.

In assay [8] the target is T10, peptide 22 of human IFN-α2 (human).
T10 construct: spotted on a microarray through a linker
T10 peptide: YTELYQQLNDLEACVIQG
Kind of assay: peptide microarray, 18mer peptides of human IFN-α2.

Assay [9] deals with T11, peptide 23 of human IFN-αW (IFN-ω) (human).
T11 construct: spotted on a microarray through a linker
T11 peptide: TGLHQQLQHLETCLLQVV
Kind of assay: peptide microarray, 18mer peptides of human IFN-αW.

The target in assay [10] is T3, human IFN-α1. Description: ELISA or LIPS (Table 7 summary). For orientation: ELISA stands for enzyme-linked immunosorbent assay.
Assay [11] deals with T4, human IFN-α10. Kind of assay: ELISA or LIPS (Table 7 summary).
The target of assay [12] is T6, human IFN-α16. Description: ELISA or LIPS (Table 7 summary).
For assay [13], the target named is T7, human IFN-α21. Description: ELISA or LIPS (Table 7 summary).
Assay [14] deals with T5, human IFN-α14. Kind of assay: ELISA or LIPS (Table 7 summary).

T3 sequence (P0DY56 entry or part of it limits assumed): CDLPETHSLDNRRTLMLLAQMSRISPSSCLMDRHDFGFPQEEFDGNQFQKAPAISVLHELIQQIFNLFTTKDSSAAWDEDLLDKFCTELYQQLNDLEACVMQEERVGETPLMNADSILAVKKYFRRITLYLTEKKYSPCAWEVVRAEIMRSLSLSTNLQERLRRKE
T4 sequence (P01566 24-189 limits assumed): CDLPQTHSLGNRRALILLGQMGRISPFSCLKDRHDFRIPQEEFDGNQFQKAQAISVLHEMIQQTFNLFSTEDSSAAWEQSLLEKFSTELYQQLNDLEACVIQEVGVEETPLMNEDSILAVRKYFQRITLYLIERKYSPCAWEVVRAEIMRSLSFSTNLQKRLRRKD
human IFN-ω, sequence (P05000 24-195 limits assumed): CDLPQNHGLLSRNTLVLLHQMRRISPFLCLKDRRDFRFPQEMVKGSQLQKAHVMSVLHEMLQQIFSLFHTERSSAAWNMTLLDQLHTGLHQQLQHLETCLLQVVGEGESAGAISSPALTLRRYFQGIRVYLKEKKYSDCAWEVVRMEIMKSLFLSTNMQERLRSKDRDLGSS
human IFN-α17, sequence (P01571 24-189 limits assumed): as the sequence (P01566 24-189 limits assumed) above, with G19A, R37G, I38L, A51T, D95N, V106M, I132T, R134K, R161I counted along it
T6 sequence (P05015 24-189 limits assumed): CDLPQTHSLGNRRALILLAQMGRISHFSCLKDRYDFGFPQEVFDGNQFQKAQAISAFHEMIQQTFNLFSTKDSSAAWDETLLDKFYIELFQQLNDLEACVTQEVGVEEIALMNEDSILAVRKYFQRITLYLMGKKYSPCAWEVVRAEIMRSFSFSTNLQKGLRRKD
human IFN-α7, sequence (P01567 24-189 limits assumed): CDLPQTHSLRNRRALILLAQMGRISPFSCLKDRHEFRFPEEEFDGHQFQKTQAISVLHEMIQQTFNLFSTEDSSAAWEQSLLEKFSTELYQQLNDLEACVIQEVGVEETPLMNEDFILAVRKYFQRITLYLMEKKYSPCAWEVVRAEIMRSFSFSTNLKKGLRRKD
T7 sequence (P01568 24-189 limits assumed): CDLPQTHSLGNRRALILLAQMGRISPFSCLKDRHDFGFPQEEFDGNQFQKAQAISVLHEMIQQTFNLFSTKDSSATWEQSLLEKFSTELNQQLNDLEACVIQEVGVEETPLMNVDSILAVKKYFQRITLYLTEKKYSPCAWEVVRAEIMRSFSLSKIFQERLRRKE
human IFN-α5, sequence (P01569 24-189 limits assumed): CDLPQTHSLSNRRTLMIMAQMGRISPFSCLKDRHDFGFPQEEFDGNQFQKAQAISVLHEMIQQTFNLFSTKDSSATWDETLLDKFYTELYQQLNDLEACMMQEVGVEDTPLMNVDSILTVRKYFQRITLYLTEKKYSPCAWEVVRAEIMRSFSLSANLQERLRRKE
T5 sequence (P01570 24-189 limits assumed): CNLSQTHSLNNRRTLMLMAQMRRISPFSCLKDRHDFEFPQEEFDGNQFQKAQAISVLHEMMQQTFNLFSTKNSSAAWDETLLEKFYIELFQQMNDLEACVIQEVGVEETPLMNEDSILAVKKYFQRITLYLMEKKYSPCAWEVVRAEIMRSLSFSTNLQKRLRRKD
human IFN-α6, sequence (P05013 24-189 limits assumed): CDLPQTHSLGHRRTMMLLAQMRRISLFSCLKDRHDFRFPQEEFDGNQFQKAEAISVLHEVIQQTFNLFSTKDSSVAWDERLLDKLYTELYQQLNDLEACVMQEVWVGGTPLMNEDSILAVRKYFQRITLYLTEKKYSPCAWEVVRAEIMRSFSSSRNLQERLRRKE
human IFN-α4, sequence (P05014 24-189 limits assumed): as the sequence (P01566 24-189 limits assumed) above, with G19A, P26H, R37G, I38F, Q40E, N46H, I132T, R134K counted along it

B1: 26B9 (antibody, human IgG1, kappa, V domains shown)
VH: QILLQESGPGLVKPTETLSLTCSVSGDSISDSSHYWAWIRQPPGKGPEWIGSVYFSSMTHYNPSLKSRVSISVDKPKNQFSLKVTSVTVADTATYYCARQALARVGAMNWFDPWGQGSLVTVSS
VL: DIIMTQSPDSLPVSLGEGVTINCKSSQSVFFTSSNKSCLAWYQQKPGKSPKLLIYWASTRQSGVPDRFRGSGSGTDFSLTITSLQAEDVAVYFCQQCQTSPPTFGGGTRLEIKR
notes: human-derived IgG1, kappa; also called MAB 26B9; hMAB 26B9
For B1, the binding result in the assay with g1mIFN-α1 was “no binding”; in the assay with g1mIFN-α9, “no binding”; in assay [6], “no binding”; in [7], “no binding”; in assay [8], “binds”; in assay [9] it was “binds”. Also, the “IC 50 (ng/ml), ISRE dual luciferase reporter assay” value (from here on “IC 50 (ng/ml)”) was 8.6 ng/mL in the assay with human IFN-α1 [1]; 2.07 ng/mL in the assay with human IFN-α4; 3.74 ng/mL with human IFN-α5; 3.16 ng/mL with human IFN-α6; 1.57 ng/mL with human IFN-α7; 1.84 ng/mL in the assay with human IFN-α10 [2]. Moreover, the “IC 50 (ng/ml)” value in the assay with human IFN-α14 [3] amounted to 2.01 ng/mL; in the assay with human IFN-α16 [4], 4010 ng/mL; with human IFN-α17 it was 2.22 ng/mL; with human IFN-α21 [5], 4.65 ng/mL; with human IFN-ω, 0.5 ng/mL.

B2: 50E11 (antibody, human IgG1, kappa, V domains shown)
VH: QVQLVQSGAEMKKPGSSVKVSCKDFGGTFSVYGVNWVRQAPGQGLEWMGGLIPVIGPANYAQKFQGRITITADESTSTAYMELSSLRFDDTAIYYCVRDDNEYWGQGTLVTVSS
VL: EMVLTQSPATLSLSPGERATLSCRASQTVSTFLAWYQQKPGQVPRLLVYDISSRANGTPARFSGGGSGTDFTLTISSLELEDFAVYYCQWRSNWPPSLTFGGGTRVEIKR
As for B2, the “IC 50 (ng/ml)” value came out at 97.4 ng/mL with human IFN-α1 [1]; 20.2 ng/mL with human IFN-α4; 0.91 ng/mL in the assay with human IFN-α5; 39.3 ng/mL with human IFN-α6; 1.9 ng/mL with human IFN-α7; 3.63 ng/mL with human IFN-α10 [2]. Besides, the “IC 50 (ng/ml)” value with human IFN-α14 [3] was 9.2 ng/mL; with human IFN-α16 [4] it was 2.35 ng/mL; in the assay with human IFN-α17, 2.31 ng/mL; in the assay with human IFN-α21 [5], 3.05 ng/mL; with human IFN-ω, 113 ng/mL.

B3: 25C3 (antibody, human IgG1, kappa, V domains shown)
VH: EMQLMESGGGLVQPGGSLRLSCVASGFTFKSFAMSWVRQAPGKGLEWVASVGSQGGSKYYAPSVKGRFSISRDNSNNTLYVQMNSLGVEDTAFYYCVKETDAVATMDALDMWGQGTLVIVST
VL: DIRVTQSPSSLSASVGDRVSISCQTSQSVNIYLNWYQQRPGKGPQLLISAASTLQSGVPSRFSGSGSGTDFILTIISLQPEDSASYYCQQGYITPYTFGQGTKVEIKR
notes: human-derived IgG1, kappa; also called MAB 25C3; hMAB 25C3
In the case of B3, the binding result with g1mIFN-α1 is “no binding”; with g1mIFN-α9, “no binding”; with human IFN-α1 [10], “binds”; in the assay with human IFN-α10 [11] it was “binds”; with human IFN-α16 [12], “binds”; in the assay with human IFN-α21 [13], “binds”.

B4: 13B11 (antibody, human IgG1, kappa, V domains shown)
VH: DVQLLQSGGGLIQPGGSLRLSCAASGFTFKDYAMSWVRQAPGKGLEWVSVISRSGNIVDYVDSVKGRFTVSRDNSNNTLFLQMDGLRADDTAIYYCAKPKDMIVVVPAGFDSWGQGTLVSVSS
VL: DIQMTQFPSTLSASVGDSVTITCRASQSISAWLAWYQQKPGKAPKLLIYKGSRLENGVPSRFSGSGSGTEFTLTIGSLQPDDFATYYCQQYKTWTFGQGTKVEIKR
notes: human-derived IgG1, kappa; also called MAB 13B11; hMAB 13B11
Consider B4, for which the binding result is on record as “no binding” in the assay with g1mIFN-α1; “no binding” with g1mIFN-α9; “no binding” in assay [6]; “no binding” in assay [7]; “binds” in the assay with human IFN-α1 [10]; “binds” in the assay with human IFN-α14 [14]. The binding result in the assay with human IFN-α16 [12] is reported as “binds”.

B5: 8H1 (antibody, human IgG1, kappa, V domains shown)
VH: QVQLVQSGAEVKKPGASVKVSCKASGQTFTSDDINWVRQAPGQGLEWMGWRNPNTQDTGYAQKFHGRLTLTSNSSISTSYLELSGLRSEDTAVYYCARAGTSTLTGHYFALGVWGQGTTVIVSS
VL: DIQLTQSPSSLSASVGDRVTITCQATQDISKYLNWYQQKPGKVPKLLIYETSNLEVGVPSRFSGSGSGTHFTLTISSLQAEDFATYYCQQYENFPFTFGGGTKVEIKR
Consider B5, for which the “IC 50 (ng/ml)” value was 29 ng/mL in the assay with human IFN-α1 [1]; 5.43 ng/mL with human IFN-α4; 1.78 ng/mL with human IFN-α5; 77.7 ng/mL in the assay with human IFN-α6; 0.9 ng/mL in the assay with human IFN-α7; 2.69 ng/mL with human IFN-α10 [2]. Besides, the “IC 50 (ng/ml)” value was found to be 785 ng/mL with human IFN-α14 [3]; 1.86 ng/mL with human IFN-α16 [4]; 2.11 ng/mL with human IFN-α17; 2.78 ng/mL in the assay with human IFN-α21 [5]; 2.13 ng/mL with human IFN-ω.

B6: 12H5 (antibody, human IgG1, kappa, V domains shown)
VH: QVQLIQSGPEVKRPGASVKVSCKASENTFDTHYINWVRQAPGQGLTWLGWLNPTTGKTGFPQKFKGRVILTSDTSLNTAYMEVSRLTSEDTAVYFCARVLKLSDEYNYGFDVWGQGTTVIVSS
VL: DIQVTQSPSSLSASIGDRVTITCRASQNILTFINWYQHKPGKAPKLLIYAASVLQNEVPSRFSGSGSGTDFTLTITSLQPDDFGTYYCQQTYLTPQCSFGQGTKVEIKR
As for B6, the “IC 50 (ng/ml)” value amounted to 51.3 ng/mL in the assay with human IFN-α1 [1]; 0.48 ng/mL in the assay with human IFN-α4; 22.6 ng/mL with human IFN-α5; 3.55 ng/mL with human IFN-α6; 0.64 ng/mL with human IFN-α7; 0.66 ng/mL with human IFN-α10 [2]. Also, the “IC 50 (ng/ml)” value in the assay with human IFN-α14 [3] is 2.15 ng/mL; with human IFN-α16 [4], 33 ng/mL; in the assay with human IFN-α17, 0.75 ng/mL; in the assay with human IFN-α21 [5] it was 13 ng/mL.
